Target: elongation factor-2 (EF-2) (rabbit) (UniProt P55823)
Assay: cell-based or functional assay

Row | Substance | inhibition of transcription/translation of T7-luc plasmid in IVTT
1 | wild type DT382 (from UniProt P00587 26-406) (enzyme) | 90%
2 | DT382 (G53E): Null construct (from UniProt P00587 26-406) (enzyme) | 20%
